{"source": "paper PMC12197075", "about": "“Identification of the Glyceraldehyde-3-Phosphate Dehydrogenase (GeGAPDH) Gene Family in Gastrodia elata Revealing Its Response Characteristics to Low-Temperature and Pathogen Stress” (Plants, 2025)", "proteins": {"B1": {"name": "GeGAPDH1 (Gastrodia elata) (protein)", "chain": "MASTAFVGSVTPLSEASFPFASSTRAPEPFRVFCWRSRSSEGSSVLCASTSCSKFPLAAISTQKSNRRNFQHTKATATETPPVVSRSSSDGKTKVGINGFGRIGRLVLRIAASRDDIEVVAVNDPFVDAKYMAYMFKYDSTHGTFKGTIKVVDESTIEIDGKRIAVTSKRDPSEITWSDFGAEYVVESSGVFTTMDKASAHLKGGAKKVVISAPSADAPMFVVGVNEQMYQPHMNIVSNASCTTNCLALLAKVVHEEFGIVEGLMTTVHATTATQKTVDGPSMKDWRGGRGASQNIIPSSTGAAKAVGKVLPELNGKLTGMAFRVPTTNVSVVDLTCRLANDASYEDVKAAVRAASEGCLKGILGYTDEDVVSNDFIGDSRSSIFDAKAGIGLGTNFMKLVSWYDNEWGYSNRVLDLIQHVARVCAHK"}}, "substrate": "O=C[C@H](O)COP(=O)(O)O", "assay": "purified protein", "conditions": "phosphorylation direction, 0.6 mM NAD+, 50 mM triethanolamine, 50 mM sodium phosphate (printed 'bisphosphate'), 0.2 mM EDTA, 25 °C, pH not stated, G3P 0.25-5 mM", "data": [{"protein": "B1", "values": [{"measurement": "Km", "result": 312, "unit": "µM"}]}]}
